Measured values from the supplement of paper PMC12764529.
± gives the half width of the 95% confidence interval.

assay: folding stability dG unfold from trypsin proteolysis; higher = more stable
Procedure, shortened: (§1)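 Only designs with AlphaFold2 dimer inter-PAE above 15 were retained; each was a mini-protein under 80 residues with no cysteine, in a PA-tagged cDNA display construct. After digestion with trypsin and chymotrypsin and sequencing, K50 was inferred by Bayesian fitting of counts, and unfolding free energy was derived per protease or combined against a sequence-predicted unfolded-state K50 and a shared folded-state K50.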

Row | Sequence | folding stability dG unfold
1 | SAGNKIEIEPVNYEPMPNGYYRVTARVTIENPNNKKPWDIDVEAYYPMDPNGQPMNVDEIAKEAIKKIFSAG [r5_604_TrROS] | 2.61 ± 0.41 kJ/mol
2 | SAGGSAMIELEIKLPKEEAEKIAEELAKKLAEELGLEVKVVDVEIEYDPETDEVTIRVKIEVEPEPSAGGSA [r15_70_TrROS_Hall] | 11.2 ± 0.628 kJ/mol
3 | SAGMVEITVEVKEDGTVIVTIPATSPEEALEVAEEVARELAKQFGAEHTEFVIEPVPDDTLVLLVPIKKSAG [r5_772_TrMRF] | 1.63 ± 0.272 kJ/mol
4 | SAAVITLETENVTATSTLLEDGSVLVDVVEFYEDGYVSVVKAVIGPDGEIKVVERVVFPVPPPVPPPDASAG [r14_42_TrMRF] | 10.4 ± 0.393 kJ/mol
5 | TTKTYTTPVIKKMTVTFDKTEGNEATLTITATLPDGTPVTLPFPLTLETGKLDPAVVEAAIKAAVATAIAQS [r1_124_JUSTAS] | 3.73 ± 0.293 kJ/mol
6 | SAGGSAGGSAGMIDIKFEKIEGSSEYRATLTRPGGEVVPVLFSSSESAEEAKERAIELLESAGGSAGGSAGG [r17_161_JUSTAS] | 3.79 ± 0.251 kJ/mol
7 | SAGDWYIVIKITIYHPNKREREFPIVFDWKDGKIEIAPEFLQNIAEELGLPPNMKIEIEIVEIMPPNDSAGG [r19_287_TrROS] | 7.33 ± 0.502 kJ/mol
8 | SAGGSAGGSEIPDIEITIDSIEFFPDGTVRITATVRFPGGGTAKITLTLPAPPAEYEPPSDLLSAGGSAGGS [r12_558_TrMRF] | 6.25 ± 0.837 kJ/mol
9 | SMPPGERYRMTMKFPDGKKITLEMNPGGWWRIKVENKNGKPQHQQPIPPDNPQELAENFGIDKVTDVEPVSA [r9_1107_TrROS] | 8.41 ± 0.397 kJ/mol
10 | SAGGSAGGSAGEWVTIPIKNPEKLKDLPGLPIKDVEPNGGKPTITFNGDDPERIKEALNDSAGGSAGGSAGG [r11_65_TrROS] | 3.36 ± 0.238 kJ/mol
11 | SAGGSAGGSKKKITVKIEEVKLNPETGKLVLVKIKLPDGKELVFKTPEEIENLPGAEFEVYELSAGGSAGGS [r20_192_TrROS_Hall] | 6.41 ± 0.586 kJ/mol

assay: folding stability dG unfold from chymotrypsin proteolysis; higher = more stable
Procedure, shortened: as §1

Row | Sequence | folding stability dG unfold
12 | SAGGSAGGSAGKKYKVVEVKENKDGTVELVVENENGEKKKITLSKEELDKLKAGDTVELKSAGGSAGGSAGG [r11_943_TrROS_Hall] | 11.3 ± 0.238 kJ/mol
13 | SAGGSAPPNLQIDIQINPGHGYIEVSVQIPGRHVKASAKLTEPGQLKMDIEFPGNGKEIDITIPISSAGGSA [r15_837_TrROS] | 10.9 ± 0.301 kJ/mol
14 | SAGGSAGGSAGGPKVEVLEVFEFGDLRFVKVYDPETGKVTLLAVTRSDGSKVTFFNPEESAGGSAGGSAGGS [r10_655_TrMRF] | 10.8 ± 0.222 kJ/mol
15 | SAGGKPKEIVIEVELEVVEVNGEKYLVLKAKIIDKETNEVYEVTAVFNLKTGKLVGIEVKKLTVEELKSAGG [r13_772_TrROS_Hall] | 20.5 ± 0.962 kJ/mol
16 | SAETVVTPRRSTLPDGTRLEEDVVTLPDGTTVTPVRVVRRDPETGREVVEFWVRTTDPATGTTTTTPLPSAG [r14_324_JUSTAS] | 7.21 ± 0.247 kJ/mol
17 | SHMVTVTIYKNGVKVKETEIPLEEVEKMPEEEIIEFAAEIAKKNPGVNYTFTITRPSGPSTVSIDGPEKLKS [r1_477_JUSTAS] | 6.5 ± 0.586 kJ/mol
18 | SGPFQFFVKIEYKGKNGKTQERELPINMPPGDFDKFIEEILDDPNLEGADDVEIDVYMAGTGRPQEIEIPSA [r9_97_TrROS] | 5.1 ± 0.46 kJ/mol
19 | SAGGSALVIKKVEPNKGYLVFESKEDDKPIVRVKLETLVAALEEDRIPPALRRLLAENPDQVFNPVSAGGSA [r15_359_TrMRF] | 7.31 ± 1.05 kJ/mol
20 | SAKLTLEIEVNGKKYKAEITSVDEETGTVTIKVTFPDGSTQTLTLTFPPAPPPKVEKVYVVDKDGKLLKSAG [r14_466_TrROS_Hall] | 7.65 ± 0.372 kJ/mol
21 | SAGGSAGGEKVEKKEVKVELKIVIVVSEELREMSEEELEELLKELAAKLPGVKEVKIEILPLPESAGGSAGG [r6_710_TrROS_Hall] | 5.59 ± 0.544 kJ/mol
22 | SAGMIEINNVTPNYVMIKIWNPDNGKKWEIPIQYERDNGKPYSKDKALEEIKDIAKEFYPDFDIEVEPVSAG [r5_293_TrROS] | 3.04 ± 0.586 kJ/mol
23 | SAGGSAGGSAGGSKELTVLVVEKNEDGTLTVRKFKIELKDGELKIVEEEEKTVPLEELKSAGGSAGGSAGGS [r4_389_TrROS_Hall] | 10.1 ± 0.155 kJ/mol
24 | SDDIKNMPFRITEIEPLPPGDPIPPGQRIRITIQMPDFPGQPFEFDIRVDPENGMIYMEMGGMPFEIPIKSA [r9_243_TrROS] | 6.69 ± 0.544 kJ/mol
25 | SAGGEWRKITVPIKYRFPPGESIDSIANELANLPGLKVEVNVEYEKDPDGRYYMEIPVEIEIPPGAPISAGG [r13_590_TrROS] | 2.8 ± 0.669 kJ/mol
26 | SAGMMKVRIKIEVTRVEYDEETGELKEETRTIEIPIEAESEEEAEELAKKLAEELPEEEVKIVEIEPLSAGG [r19_209_TrROS_Hall] | 5.92 ± 0.46 kJ/mol
27 | SAGGSAGGSAGIEIHVMEDPDGRWWLMITIKVKYKVRNPEDGDPIFEFEVTYTIMIWLKASAGGSAGGSAGG [r17_124_TrROS] | 24.7 ± 0.711 kJ/mol
28 | SGSLSIEFSSTEPSSPGSITLSKLFPEPEADRATHTIKLPNSTIELEFDSAEDLIKNVEKLLKELGNPGKSA [r9_258_JUSTAS] | -0.329 ± 0.753 kJ/mol
29 | SAGGSAMKVYKIKLEFENEETGKRVEIEAEVVEVDGELYLVMKAKVVDEETGEEKEIEIVIKLPKESAGGSA [r15_960_TrROS_Hall] | 9.5 ± 1.67 kJ/mol
30 | SAGGSAGGSAYELVIVGTPELALKLAKEFAEKNPESVANLKIEKITAALPVPFLSPDGIPESAGGSAGGSAG [r3_89_TrMRF] | 0.865 ± 1.63 kJ/mol
31 | SAGGGSSSTTTSTTTTTSTSIEPLPGDREVVVTTTTTTTTTTTTTTPPDGSSTSTTTTTTTTTTTVTLASAG [r5_428_JUSTAS] | 6.08 ± 0.343 kJ/mol
32 | SAGGSAGGPEIEVRFPDGWYVKITVERPEDGKVTVKVEVYHPDPNGKPIPPETAKNLAKEFLNKSAGGSAGG [r6_235_TrROS] | 1.23 ± 0.502 kJ/mol
